# Test results reported in PMC9200798.
# Tests used:
# P45520 = assay: microfluidics-coupled TIRF microscopy of single filaments; barbed end depolymerization of ADP-Pi filaments, F-buffer with KCl replaced by 40 mM K2HPO4 and 10 mM KH2PO4; settings: other: microfluidics-coupled TIRF microscopy of single filaments
# [1] = target: Leishmania major actin (Leishmania major) (UniProt P45520)
# [2] = target: Leishmania major actin (Leishmania major) (UniProt P45520); assay: microfluidics-coupled TIRF microscopy of single filaments; pointed end depolymerization: pre-polymerized ADP-F-actin injected over 10 nM biotin-gelsolin held on neutravidin, F-buffer with 0.4 mM CaCl2, then F-buffer
# [3] = target: Leishmania major actin (Leishmania major) (UniProt P45520); assay: microfluidics-coupled TIRF microscopy of single filaments; barbed end polymerization from surface-anchored spectrin-actin seeds, G-actin with equimolar profilin in F-buffer (5 mM Tris-HCl pH 7.4, 50 mM KCl, 1 mM MgCl2); segmented, mixed or ATP-ATTO-488 filaments
# [4] = target: Leishmania major actin (Leishmania major) (UniProt P45520); remark: listed apart in the source
# [5] = target: rabbit skeletal muscle α-actin (rabbit (Oryctolagus cuniculus)) (UniProt P68135)
substance,measurement,setting,value
Leishmania major actin,"barbed end depolymerization rate, ADP-Pi-actin",P45520,~6 subunits/s
Leishmania major cofilin (natural protein),"global fragmentation rate of LmActin filaments by LmCofilin against RbActin filaments by mammalian cofilin-1, microfluidics-coupled TIRF microscopy",[1],100 fold
Leishmania major actin (from UniProt P45520 2-376) (natural protein),"pointed end depolymerization rate, ADP-actin",[2],3.5 subunits/s
same,barbed end polymerization rate constant (with equimolar LmProfilin) (subunits/s/μM),[3],6
Leishmania major twinfilin (natural protein),"barbed end depolymerization rate of ADP-LmActin filaments without actin monomers, with LmTwf (0.1 and 1 μM) against buffer only",[4],3 subunits/s
same,"barbed end polymerization rate with 1 μM LmActin, 1 μM LmProfilin and 0–4 μM LmTwf; net depolymerization above 0.2 μM LmTwf",[4],8 subunits/s
same,depolymerization rate of ADP-RbActin filaments with LmTwf,[5],0.5 subunits/s
